# Test results: the supplement of paper PMC10065799, “High-throughput profiling of sequence recognition by tyrosine kinases and SH2 domains using bacterial peptide display” (eLife, 2023)
# System: c-Src
# Assay: phosphorylation enrichment, bacterial display (enrichment ratio); higher = better substrate or ligand; peptides without Tyr show the background
# 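For SH2 binding enrichment of the phosphorylated peptide, bacterial display in this document: peptide library displayed on the E. coli surface as eCPX fusions, selected cells deep-sequenced, score is each peptide's frequency after selection divided by its frequency in the input.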
# 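For phosphorylation enrichment, bacterial display in this document: 11-residue human phosphosite peptides and single-mutation variants displayed on the E. coli surface, counted by deep sequencing, each peptide's frequency after selection divided by its frequency in the unselected input library; frequency after pTyr selection over input frequency; kinase dosed for 20-30% of maximal phosphorylation in three min.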
row,Sequence,phosphorylation enrichment
1,EAVSIYQFHGQ [CBLC_Y402],7.06
2,VMSGPYELKAL [IL1B_Y140],0.873
3,ANSPVYVPTTR [GATA6_Y188_S184N],0.448
4,GLPQTYCVSGP [DYSF_Y1684],0.524
5,DDSNLYINVKL [MTHFD1_Y52],0.442
6,FPKDVYVDSKD [NDUFAF4_Y69_L65P],0.416
7,VSRGRYRPQEC [B4GALT4_Y113],0.657
8,QPGDIYHQTWA [GBA_Y244],3.42
9,MRTMGYMPTEM [CABP5_Y62],0.355
10,SVVVPYEPPED [TP53_Y220_V225D],0.491
11,GEHSIYCTVNN [CD55_Y266],4.66
12,PNRILYGDFRQ [MYH6_Y717],5.52
13,IAAEYYDNLPH [DEGS1_Y284],0.782
14,FTNRSYDLDFD [MYC_Y12_N11S_YF],0.499
15,YLTSSYINIST [IL23R_Y178],0.466
16,IKGNMYFENSF [EGFR_Y112_R108K_YF],0.657
17,ITVPAYFNDSQ [HSPA9_Y196],0.536

row,Sequence,phosphorylation enrichment
1,ITNVLYHVVGW [GBA_Y412_L410V],3.13
2,FETDFYRKGGK [INSR_Y1190_YF],0.482
3,RPCVVYGGADI [DDX3X_Y301],1.44
4,ASIVDYNIIGW [MYH7_Y588_G584S],0.514
5,RGSQQYRALTV [TUBB8_Y281],0.594
6,EDAHHYLCKEV [JAK2_Y382_A377E],0.366
7,DFKIIYIVPMR [SNRNP200_Y540_A542V],0.42
8,RRDRDYTNLPS [CSF1R_Y923_E920D],0.545
9,LRAGVYHEKDQ [DNM2_Y626_P627H],0.617
10,QGRQTYLLQPA [DDR2_Y813_P815L],0.701
11,KPGLKYVTFGN [GALNTL5_Y404_YF],0.488
12,TLARLYHPDST [LRIG1_Y1029],0.302
13,SVTSTYSPALN [TP53_Y126_C124S],0.488
14,EYGFRYELVQY [UGGT2_Y1289],0.584
15,RDMMDYMLQGV [CYP21A2_Y259],1.09
16,IRTIDYRYTVW [IDS_Y497],0.398

# Target: Grb2 SH2 (UniProt P62993)
# Sequence (P62993 whole entry, looked up): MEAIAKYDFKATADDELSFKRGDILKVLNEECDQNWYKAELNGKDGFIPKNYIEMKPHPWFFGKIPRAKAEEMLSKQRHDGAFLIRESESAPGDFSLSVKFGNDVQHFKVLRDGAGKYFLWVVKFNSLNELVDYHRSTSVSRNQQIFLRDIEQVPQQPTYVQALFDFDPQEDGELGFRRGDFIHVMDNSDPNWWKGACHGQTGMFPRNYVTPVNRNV
# Assay: SH2 binding enrichment of the phosphorylated peptide, bacterial display (enrichment ratio); higher = better substrate or ligand; peptides without Tyr show the background
row,Sequence,SH2 binding enrichment
1,EAVSIYQFHGQ [CBLC_Y402],0.757
2,VMSGPYELKAL [IL1B_Y140],0.92
3,ANSPVYVPTTR [GATA6_Y188_S184N],0.834
4,GLPQTYCVSGP [DYSF_Y1684],0.839
5,DDSNLYINVKL [MTHFD1_Y52],0.824
6,FPKDVYVDSKD [NDUFAF4_Y69_L65P],1.13
7,VSRGRYRPQEC [B4GALT4_Y113],0.62
8,QPGDIYHQTWA [GBA_Y244],0.626
9,MRTMGYMPTEM [CABP5_Y62],0.789
10,SVVVPYEPPED [TP53_Y220_V225D],0.874
11,GEHSIYCTVNN [CD55_Y266],0.598
12,PNRILYGDFRQ [MYH6_Y717],0.918
13,IAAEYYDNLPH [DEGS1_Y284],0.88
14,FTNRSYDLDFD [MYC_Y12_N11S_YF],0.756
15,YLTSSYINIST [IL23R_Y178],11.7
16,IKGNMYFENSF [EGFR_Y112_R108K_YF],0.932
17,ITVPAYFNDSQ [HSPA9_Y196],1.08

row,Sequence,SH2 binding enrichment
1,ITNVLYHVVGW [GBA_Y412_L410V],1.78
2,FETDFYRKGGK [INSR_Y1190_YF],0.875
3,RPCVVYGGADI [DDX3X_Y301],0.823
4,ASIVDYNIIGW [MYH7_Y588_G584S],0.761
5,RGSQQYRALTV [TUBB8_Y281],1.04
6,EDAHHYLCKEV [JAK2_Y382_A377E],1.08
7,DFKIIYIVPMR [SNRNP200_Y540_A542V],1.67
8,RRDRDYTNLPS [CSF1R_Y923_E920D],1.87
9,LRAGVYHEKDQ [DNM2_Y626_P627H],0.92
10,QGRQTYLLQPA [DDR2_Y813_P815L],1.21
11,KPGLKYVTFGN [GALNTL5_Y404_YF],1.33
12,TLARLYHPDST [LRIG1_Y1029],0.646
13,SVTSTYSPALN [TP53_Y126_C124S],0.672
14,EYGFRYELVQY [UGGT2_Y1289],0.768
15,RDMMDYMLQGV [CYP21A2_Y259],0.812
16,IRTIDYRYTVW [IDS_Y497],1.04

# Target: SHP2-C SH2
# Assay: as above
row,Sequence,SH2 binding enrichment
1,EAVSIYQFHGQ [CBLC_Y402],0.511
2,VMSGPYELKAL [IL1B_Y140],1.52
3,ANSPVYVPTTR [GATA6_Y188_S184N],0.783
4,GLPQTYCVSGP [DYSF_Y1684],0.528
5,DDSNLYINVKL [MTHFD1_Y52],0.496
6,FPKDVYVDSKD [NDUFAF4_Y69_L65P],0.821
7,VSRGRYRPQEC [B4GALT4_Y113],0.409
8,QPGDIYHQTWA [GBA_Y244],0.352
9,MRTMGYMPTEM [CABP5_Y62],1.08
10,SVVVPYEPPED [TP53_Y220_V225D],0.778
11,GEHSIYCTVNN [CD55_Y266],0.639
12,PNRILYGDFRQ [MYH6_Y717],0.878
13,IAAEYYDNLPH [DEGS1_Y284],0.542
14,FTNRSYDLDFD [MYC_Y12_N11S_YF],0.723
15,YLTSSYINIST [IL23R_Y178],1.9
16,IKGNMYFENSF [EGFR_Y112_R108K_YF],0.784
17,ITVPAYFNDSQ [HSPA9_Y196],0.878

row,Sequence,SH2 binding enrichment
1,ITNVLYHVVGW [GBA_Y412_L410V],1.24
2,FETDFYRKGGK [INSR_Y1190_YF],0.776
3,RPCVVYGGADI [DDX3X_Y301],0.773
4,ASIVDYNIIGW [MYH7_Y588_G584S],0.769
5,RGSQQYRALTV [TUBB8_Y281],0.919
6,EDAHHYLCKEV [JAK2_Y382_A377E],0.781
7,DFKIIYIVPMR [SNRNP200_Y540_A542V],2.13
8,RRDRDYTNLPS [CSF1R_Y923_E920D],0.677
9,LRAGVYHEKDQ [DNM2_Y626_P627H],0.657
10,QGRQTYLLQPA [DDR2_Y813_P815L],0.895
11,KPGLKYVTFGN [GALNTL5_Y404_YF],1.7
12,TLARLYHPDST [LRIG1_Y1029],0.681
13,SVTSTYSPALN [TP53_Y126_C124S],0.787
14,EYGFRYELVQY [UGGT2_Y1289],0.787
15,RDMMDYMLQGV [CYP21A2_Y259],0.997
16,IRTIDYRYTVW [IDS_Y497],1.31

# Target: c-Src SH2
# Assay: as above
row,Sequence,SH2 binding enrichment
1,EAVSIYQFHGQ [CBLC_Y402],0.464
2,VMSGPYELKAL [IL1B_Y140],0.533
3,ANSPVYVPTTR [GATA6_Y188_S184N],0.506
4,GLPQTYCVSGP [DYSF_Y1684],0.611
5,DDSNLYINVKL [MTHFD1_Y52],0.457
6,FPKDVYVDSKD [NDUFAF4_Y69_L65P],0.542
7,VSRGRYRPQEC [B4GALT4_Y113],0.43
8,QPGDIYHQTWA [GBA_Y244],0.439
9,MRTMGYMPTEM [CABP5_Y62],0.407
10,SVVVPYEPPED [TP53_Y220_V225D],0.769
11,GEHSIYCTVNN [CD55_Y266],0.48
12,PNRILYGDFRQ [MYH6_Y717],0.568
13,IAAEYYDNLPH [DEGS1_Y284],1.13
14,FTNRSYDLDFD [MYC_Y12_N11S_YF],2.61
15,YLTSSYINIST [IL23R_Y178],2.21
16,IKGNMYFENSF [EGFR_Y112_R108K_YF],0.619
17,ITVPAYFNDSQ [HSPA9_Y196],0.498

row,Sequence,SH2 binding enrichment
1,ITNVLYHVVGW [GBA_Y412_L410V],1.27
2,FETDFYRKGGK [INSR_Y1190_YF],0.502
3,RPCVVYGGADI [DDX3X_Y301],0.6
4,ASIVDYNIIGW [MYH7_Y588_G584S],0.535
5,RGSQQYRALTV [TUBB8_Y281],0.535
6,EDAHHYLCKEV [JAK2_Y382_A377E],0.603
7,DFKIIYIVPMR [SNRNP200_Y540_A542V],1.08
8,RRDRDYTNLPS [CSF1R_Y923_E920D],1.45
9,LRAGVYHEKDQ [DNM2_Y626_P627H],0.445
10,QGRQTYLLQPA [DDR2_Y813_P815L],0.618
11,KPGLKYVTFGN [GALNTL5_Y404_YF],1.21
12,TLARLYHPDST [LRIG1_Y1029],0.372
13,SVTSTYSPALN [TP53_Y126_C124S],0.491
14,EYGFRYELVQY [UGGT2_Y1289],2.15
15,RDMMDYMLQGV [CYP21A2_Y259],0.531
16,IRTIDYRYTVW [IDS_Y497],0.985
